The values below come from patent publication US4981788A, “Novel acetylpolyamine amidohydrolase” (Kyowa Hakko Kogyo Co., Ltd., priority 1987, dated 1991).

What all share (format): biochemical, Mycoplana bullata
Substrate in series [1]: CC(=O)NCCCCNCCCN
The experiment in a line: Enzyme activity on acetylpolyamine substrates, partially purified product (substrate specificity, optimum pH/temperature, Km). To be noted: other: pH 7.0, Lineweaver-Burk plot. Here is the method: (§1) Activity of the present enzyme (partially purified products) is measured according to the following procedure. That is, 0.1 ml of an enzyme solution is added to a reagent solution consisting of 1.5 ml of 0.1 M phosphate buffer (pH 7.0), 0.05 ml of 50 mM acetylpolyamine, 0.4 U of putrescine oxidase (when acetylputrescine, acetylcadaverine or acetylspermidine is used as substrate) or polyamine oxidase (when acetylspermidine or acetylspermine is used as substrate), 0.5 ml of 2.4 mM 4-aminoantipyrine, 0.5 ml of 42 mM phenol and 20 U of peroxidase. The mixture is incubated at 37° C., and the absorbance of quinoneimine pigment formed at 500 nm is measured.
(§2) In terms of the enzyme activity, the amount of enzyme that can hydrolyze 1 μmole of a substrate in one minute is defined as one unit (1 U).
(§3) The relative activities of acetylpolyamine amidohydrolases against various type of acetylpolyamine, defining the activities against acetylputrescine as 100 under a condition of pH 7.0, are as shown in Table 1 below.
(§4) Enzyme activity was measured at different pH levels ranging from 6 to 10 by using bis-Tris propane buffer solutions. The optimum pH was 9 for acetylputrescine and acetylcadaverine, and 8 for N^1 -acetylspermidine, N^8 -acetylspermidine and acetylspermine, as shown in FIG. 1.
(§5) The optimum working temperature for the present enzyme was about 50° C., when the relative activity was determined, using acetylputrescine as substrate, as shown in FIG. 4. The optimum temperatures for the other acetylpolyamine amidohydrolases were 30° to 40° C. This clearly distinguishes the present enzyme from the known enzymes.
(§6) Km values of the present enzyme and the other known enzymes for various types of acetylpolyamine at pH 7.0 were determined from the Line weaver-Burk plot [refer to J. Am. Chem. Soc., 56, 658 (1934)].

Substrate in series [2]: CC(=O)NCCCNCCCCN
The description is as above. The following applies: other: pH 7.0, Lineweaver-Burk plot. Here is the method:
as §1, §2, §3, §4, §5, §6

Substrate in series [3]: CC(=O)NCCCCCN
The description is as above. The following applies: other: pH 7.0, Lineweaver-Burk plot. How it is done:
as §1, §2, §3, §4, §5, §6

Substrate in series [4]: CC(=O)NCCCCNCCCN
The experiment in a line: Enzyme activity on acetylpolyamine substrates, product purified to homogeneity (Method 2 / Method 3). To be noted: other: pH 9.0, Lineweaver-Burk plot. An excerpt:
(§7) [Method 2] (Assay when acetylputrescine, acetylcadaverine, N^1 -acetylspermidine and N^8 -acetylspermidine are used as substrate:)
(§8) The acetylpolyamine can be hydrolyzed by the acetylpolyamine amidohydrolase, as described in [Method 1], and the corresponding free polyamine thus formed is then oxidized by putrescine oxidase. Putrescine oxidase derived from Micrococcus rubens is known to have an activity upon putrescine, cadaverine and spermidine [Adachi, et al., Agric. Biol. Chem, 30, 1202 (1966)]. […] The actual analytical procedure is as described below.
(§9) The above reagents, (b) through (h), were put in a cuvette (d: 1.0 cm) and the mixture was preincubated at 37° C. for 2 minutes. The substrate solution (a) was then added, and the resulting mixture was incubated at 37° C. Absorbance at 500 nm was measured over a period of 3 to 5 minutes, and the change in absorbance per minute (ΔODsample) was determined from the linear portion of the plotted curve. For control, the same procedure as above was carried out, using distilled water as reference.
(§10) One unit of acetylpolyamine amidohydrolase is defined as its amount necessary to hydrolyze 1 μmole of acetylputrescine at 37° C. for one minute (or the amount necessary to form 0.5 μmole of quinoneimine pigment formed in the method for measuring the enzyme activity described above).
(§11) [Method 3] (Assay when acetylspermine is used as substrate:)
(§12) Acetylspermine is hydrolyzed by the action of acetylpolyamine amidohydrolase into free form of spermine. The free form of spermine can be oxidized by a polyamine oxidase derived from Aspergillus terreus to produce hydrogen peroxide. […] Thus, the enzyme activity can be measured by quantitative determination of the hydrogen peroxide according to the method described above. […]
(§13) Reagents (b) through (d) given in item (1) were put in a test tube and the mixture was preincubated at 37° C. for 2 minutes. […] A sample solution (200 μl), taken from the eluate containing free form of spermine, was mixed in a cuvette with reagents (a) through (e) given in item (2) above, the mixture was incubated at 37° C. for 10 minutes, and the absorbance at 755 nm was measured. […]
(§14) The concentration of free form of spermine in the reaction mixture can be determined from a calibration curve previously prepared on the basis of aqueous soluitons of free form of spermine with different concentrations. […]
(§15) The activities upon acetylputrescine, acetylcadaverine, N^1 -acetylspermidine and N^8 -acetylspermidine were measured by [Method 2] in a phosphate buffer (pH 9.0) at a substrate concentration of 0.833 mM, and the activity upon acetyl-spermine was measured by [Method 3] under the same conditions. […] Km values, determined from the Lineweaver-Burk plot, are also listed in the same table. […]

Substrate in series [5]: CC(=O)NCCCNCCCCN
The description is as above. The following applies: other: pH 9.0, Lineweaver-Burk plot.
Text: as §7, §8, §9, §10, §11, §12, §13, §14, §15

Substrate in series [6]: CC(=O)NCCCCN
The description is as above. To be noted: other: pH 9.0, Lineweaver-Burk plot.
Text: as §7, §8, §9, §10, §11, §12, §13, §14, §15

Substrate in series [7]: CC(=O)NCCCCCN
The description is as above. The following applies: other: pH 9.0, Lineweaver-Burk plot.
Text: as §7, §8, §9, §10, §11, §12, §13, §14, §15

B1: acetylpolyamine amidohydrolase (the present enzyme, partially purified product) (Mycoplana ramosa) (protein)
chain: MRVIFSEDHKLRNAKTELYGGELVPPFEAPFRAEWILAAVKEAGFDDVVAPARHGLETVLKVHDAGYLNFLETAWDRWKAAGYKGEAIATSFPVRRTSPRIPTDIEGQIGYYCNAAETAISPGTWEAALSSMASAIDGADLIAAGHKAAFSLCRPPGHHAGIDMFGGYCFINNAAVAAQRLLDKGAKKIAILDVDFHHGNGTQDIFYERGDVFFASLHGDPAEAFPHFLGYAEETGKGAGAGTTANYPMGRGTPYSVWGEALTDSLKRIAAFGAEAIVVSLGVDTFEQDPISFFKLTSPDYITMGRTIAASGVPLLVVMEGGYGVPEIGLNVANVLKGVAG
notes: novel acetylpolyamine amidohydrolase of the present invention accumulated within the grown cells; made in house; host or cells: Mycoplana (natural producer; cells grown in culture)
For orientation: Km means the concentration of substrate that gives half-maximal velocity. B1: the Km is 560 µM in series [1], 270 µM in series [2] and 130 µM in series [3].

B2: acetylpolyamine amidohydrolase (the present enzyme, product purified to homogeneity) (Mycoplana ramosa) (protein)
chain: MRVIFSEDHKLRNAKTELYGGELVPPFEAPFRAEWILAAVKEAGFDDVVAPARHGLETVLKVHDAGYLNFLETAWDRWKAAGYKGEAIATSFPVRRTSPRIPTDIEGQIGYYCNAAETAISPGTWEAALSSMASAIDGADLIAAGHKAAFSLCRPPGHHAGIDMFGGYCFINNAAVAAQRLLDKGAKKIAILDVDFHHGNGTQDIFYERGDVFFASLHGDPAEAFPHFLGYAEETGKGAGAGTTANYPMGRGTPYSVWGEALTDSLKRIAAFGAEAIVVSLGVDTFEQDPISFFKLTSPDYITMGRTIAASGVPLLVVMEGGYGVPEIGLNVANVLKGVAG
notes: novel acetylpolyamine amidohydrolase of the present invention accumulated within the grown cells; made in house; host or cells: Mycoplana (natural producer)
Consider B2, for which the Km came to 310 µM in series [4], 130 µM in series [5], 220 µM in series [6] and 50 µM in series [7].
